Source: patent US20210317204A1 (ALMAC DISCOVERY, published 2021)
Residue numbers refer to the chain shown, from its start. Numbers in names are those of the source. Each block holds one binder with its values, some of them ahead of it.

Legend:
cynomolgus serum albumin [1] = biological target: T1, cynomolgus serum albumin (cynomolgus); assay: SPR, CSA on chip, pH 5.5
T1 construct: also called CSA; Cyano

cynomolgus serum albumin [2] = biological target: T1, cynomolgus serum albumin; assay: SPR, CSA on chip, pH 7.4
[3] = biological target: T2, human ROR1 extracellular domain-Fc fusion (human, UniProt Q01973 30-406); assay: SPR, hROR1 ECD-Fc on chip
T2 construct: extracellular domain; also called hROR1; ROR1-hFc

[4] = biological target: T2, human ROR1 extracellular domain-Fc …; assay: SPR
[5] = biological target: T2, human ROR1 extracellular domain-Fc …; assay: SPR; remark: listed apart in the source
[6] = biological target: T3, B1 VNAR (C-terminal His6 or His6Myc tag, not said which); assay: competition ELISA: B1 pre-incubated with the peptide, residual binding to coated huROR1-Fc
T3 construct: shark VNAR domain; also called VNAR B1; B1 monomer

D3 VNAR = biological target: T4, D3 VNAR; assay: competition ELISA: D3 pre-incubated with the peptide (25% DMSO), residual binding to coated huROR1-Fc
T4 construct: shark VNAR domain; also called D3 WT; D3 monomer; not shown: C-terminal His6 or His6Myc tag (His6Myc in flow cytometry)

D3-[G4S]5-D3 homodimer = biological target: T5, D3-[G4S]5-D3 homodimer; assay: competition ELISA: D3-D3 pre-incubated with the peptide (25% DMSO), residual binding to coated huROR1-Fc
T5 construct: also called D3-D3; D3D3; not shown: C-terminal His6 or His6Myc tag (His6Myc in flow cytometry)
T5 sequence (chain, as listed by the source): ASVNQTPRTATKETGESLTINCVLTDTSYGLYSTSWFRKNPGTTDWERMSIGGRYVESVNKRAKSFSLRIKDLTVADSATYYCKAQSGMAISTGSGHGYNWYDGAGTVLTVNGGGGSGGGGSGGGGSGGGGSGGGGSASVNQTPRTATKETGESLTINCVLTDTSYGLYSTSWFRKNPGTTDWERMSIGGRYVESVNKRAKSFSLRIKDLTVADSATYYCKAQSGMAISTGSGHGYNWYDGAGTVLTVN

T3 sequence (chain, as listed by the source): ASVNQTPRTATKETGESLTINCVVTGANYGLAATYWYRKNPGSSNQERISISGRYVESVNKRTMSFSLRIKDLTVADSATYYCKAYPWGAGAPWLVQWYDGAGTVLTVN
T1 sequence (A2V9Z4 25-608): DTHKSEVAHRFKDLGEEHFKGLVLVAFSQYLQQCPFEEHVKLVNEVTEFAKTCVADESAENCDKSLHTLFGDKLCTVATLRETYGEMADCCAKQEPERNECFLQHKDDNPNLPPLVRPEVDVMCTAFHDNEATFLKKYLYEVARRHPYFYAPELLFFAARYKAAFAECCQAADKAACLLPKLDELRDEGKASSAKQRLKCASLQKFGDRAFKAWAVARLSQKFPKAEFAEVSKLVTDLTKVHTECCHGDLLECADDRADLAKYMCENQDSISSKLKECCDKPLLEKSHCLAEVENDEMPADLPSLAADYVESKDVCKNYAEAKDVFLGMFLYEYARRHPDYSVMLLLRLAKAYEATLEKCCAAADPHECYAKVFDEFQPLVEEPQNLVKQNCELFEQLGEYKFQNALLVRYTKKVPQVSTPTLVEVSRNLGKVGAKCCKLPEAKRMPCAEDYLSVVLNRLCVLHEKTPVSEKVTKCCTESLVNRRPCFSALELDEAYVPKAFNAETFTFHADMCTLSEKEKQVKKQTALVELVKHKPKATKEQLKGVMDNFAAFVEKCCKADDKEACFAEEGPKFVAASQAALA
T4 sequence (chain, as listed by the source): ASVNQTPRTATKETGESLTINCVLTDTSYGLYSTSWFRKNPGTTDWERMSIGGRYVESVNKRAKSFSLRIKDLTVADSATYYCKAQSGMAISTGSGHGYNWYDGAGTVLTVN

B8: P3A1 G1 dimer (VNAR)
chain: TRVDQSPSSLSASVGDRVTITCVLTDTSYGLYSTYWYRKNPGSSNKEQISISGRYSESVNKGTKSFTLTISSLQPEDSATYYCRAREARHPWLRQWYDGAGTKVEIKGGGGSGGGGSGGGGSGGGGSGGGGSTRVDQSPSSLSASVGDRVTITCVLTDTSYGLYSTYWYRKNPGSSNKEQISISGRYSESVNKGTKSFTLTISSLQPEDSATYYCRAREARHPWLRQWYDGAGTKVEIKQASGAHHHHHHGAEFEQKLISEEDLG
notes: humanised VNAR dimer
Kd [3]: 0.43 nM | koff [3]: 0.00147 s⁻¹ | kon [3]: 4.3e+06 M⁻¹ s⁻¹

B10: P3A1 V1 dimer (VNAR)
chain: TRVDQSPSSLSASVGDRVTITCVLTDTSYGLYSTSWFRKNPGTTDWERMSIGGRYVESVNKGAKSFTLTISSLQPEDFATYYCKAREARHPWLRQWYDGAGTKVEIKGGGGSGGGGSGGGGSGGGGSGGGGSTRVDQSPSSLSASVGDRVTITCVLTDTSYGLYSTSWFRKNPGTTDWERMSIGGRYVESVNKGAKSFTLTISSLQPEDFATYYCKAREARHPWLRQWYDGAGTKVEIKQASGAHHHHHHGAEFEQKLISEEDLG
notes: humanised VNAR dimer
Kd [3]: 0.18 nM | koff [3]: 0.000846 s⁻¹ | kon [3]: 4.78e+06 M⁻¹ s⁻¹

B11: P3A1 G2 dimer (VNAR)
chain: B10 chain with S35Y, F37Y, V56S, F78S, K84R, S167Y, F169Y, V188S, F210S, K216R
notes: humanised VNAR dimer
Kd [3]: 0.77 nM | koff [3]: 0.00119 s⁻¹ | kon [3]: 1.88e+06 M⁻¹ s⁻¹

B12: D3 humanised EL V2 (VNAR)
VNAR: ASVNQSPSSLSASVGDRVTITCVLTDTSYGLYSTSWFRKNPGTTDWERMSIGGRYVESVNKRAKSFTLTISSLQPEDFATYYCKAQSGMAISTGSGHGYNWYDGAGTKVEIK
notes: also called D3 EL V2
Kd [3]: 18.9 nM | kon [3]: 1.85e+06 M⁻¹ s⁻¹

B13: D3 humanised EL V4 (VNAR)
VNAR: B12 VNAR with F37Y, R38Q, K39Q, N40K
notes: also called D3 EL V4
Kd [3]: 58.5 nM | koff [3]: ~0.0545 s⁻¹ | kon [3]: 1.38e+06 M⁻¹ s⁻¹

B14: D3 humanised ADV2 (VNAR)
VNAR: TRVDQSPSSLSASVGDRVTITCVLTDTSYGLYSTSWFRKNPGTTDWERMSIGGRYSESVNKGAKSFTLTISSLQPEDSATYYCKAQSGMAISTGSGHGYNWYDGAGTKVEIKQ
notes: also called D3 AD V2
Kd [3]: 51.6 nM | koff [3]: 0.00236 s⁻¹ | kon [3]: 45800 M⁻¹ s⁻¹

B15: B1 G2 (loop-grafted humanised B1) (VNAR)
VNAR: TRVDQSPSSLSASVGDRVTITCVLTGANYGLASTYWYRKNPGSSNQERISISGRYSESVNKRTMSFTLTISSLQPEDSATYYCRAYPWGAGAPWLVQWYDGAGTKVEIKQ
notes: humanised VNAR
Kd [3]: 45.9 nM | koff [3]: 0.0079 s⁻¹ | kon [3]: 185000 M⁻¹ s⁻¹

B16: B1 humanised V7 (VNAR)
VNAR: B15 VNAR with T1A, R2S, L10A, V18L, L24V, S33A, R84K, V106L, I108V
notes: humanised VNAR; also called B1V7
Kd [3]: 0.77 nM | koff [3]: 5.54e-05 s⁻¹ | kon [3]: 77400 M⁻¹ s⁻¹

B17: B1 G1 (loop-grafted humanised B1) (VNAR)
VNAR: B15 VNAR with Q46K, R48Q, R62G, M64K
notes: humanised VNAR
Kd [3]: 82.8 nM | koff [3]: 0.0162 s⁻¹ | kon [3]: 220000 M⁻¹ s⁻¹

B18: B1 humanised V5 (VNAR)
VNAR: B15 VNAR with T1A, R2S, L24V, S33A, R84K
notes: humanised VNAR; also called B1V5
Kd [3]: 0.74 nM | koff [3]: 3.85e-05 s⁻¹ | kon [3]: 52000 M⁻¹ s⁻¹

B22: P3A1-P3A1-Ox-MMAE (VNAR)
chain: TRVDQTPRTATKETGESLTINCVLTDTSYGLYSTSWFRKNPGTTDWERMSIGGRYVESVNKGAKSFSLRIKDLTVADSATYYCKAREARHPWLRQWYDGAGTVLTVNGGGGSGGGGSGGGGSGGGGSGGGGSTRVDQTPRTATKETGESLTINCVLTDTSYGLYSTSWFRKNPGTTDWERMSIGGRYVESVNKGAKSFSLRIKDLTVADSATYYCKAREARHPWLRQWYDGAGTVLTVNQASGAHHHHHHGAEFEQKLISEEDLG
modifications: chain 1 pos 265 (C-terminal Gly, written G): carboxyl derivatised with O,O'-1,3-propanediylbishydroxylamine (C-terminal aminoxy), joined by oxime to benzaldehyde PEG4 MMAE (non-cleavable)
notes: linker as for m77
Kd [5]: 0.78 nM | koff [5]: 0.0032 s⁻¹ | kon [5]: 4.2e+06 M⁻¹ s⁻¹

The next lines start with the values.

Kd (cynomolgus serum albumin [1]): 1.11 nM | Kd (cynomolgus serum albumin [2]): 3.36 nM
B1: BA11 humanised VNAR (VNAR)
VNAR: TRVDQSPSSLSASVGDRVTITCVLTDTSYPLYSTYWYRKNPGSSNKEQISISGRYSESVNKGTKSFTLTISSLQPEDSATYYCRAMSTNIWTGDGAGTKVEIK

Kd (cynomolgus serum albumin [1]): 5.54 nM | Kd (cynomolgus serum albumin [2]): 1.75 nM
B2: BA11-oxime-fluorescein (VNAR)
VNAR: B1 VNAR
modifications: C-terminal aminoxy joined by oxime to benzaldehyde-peg-fluorescein

Kd (cynomolgus serum albumin [1]): 8.21 nM | Kd (cynomolgus serum albumin [2]): 3.68 nM
B3: BA11-cys-maleimide-peg-fluorescein (VNAR)
VNAR: B1 VNAR
modifications: C-terminal cysteine joined to maleimide-peg-fluorescein
notes: also called BA11-cys-mal-Fl

Kd (cynomolgus serum albumin [1]): 7.01 nM | Kd (cynomolgus serum albumin [2]): 2.3 nM
B4: BA11-S-maleimide-peg-fluorescein (VNAR)
VNAR: B1 VNAR
modifications: C-terminal thiol joined to maleimide-peg-fluorescein
notes: also called BA11-S-mal-Fl

Kd (cynomolgus serum albumin [2]): 2.1 nM
B5: BA11 C-terminal cysteine derivative (VNAR)
VNAR: B1 VNAR
modifications: additional C-terminal cysteine from cysteine cleavage of the intein fusion
notes: also called BA11-cys

Kd (cynomolgus serum albumin [2]): 7.97 nM
B6: BA11-aminoxy (VNAR)
VNAR: B1 VNAR
modifications: C-terminal aminoxy from dioxyamine cleavage of the intein fusion

Kd (cynomolgus serum albumin [1]): 6.74 nM | Kd (cynomolgus serum albumin [2]): 3.41 nM
B7: BA11 C-terminal thiol derivative (VNAR)
VNAR: B1 VNAR
modifications: C-terminal thiol from cysteamine cleavage of the intein fusion
notes: also called BA11-SH

Kd [4]: 0.35 nM | koff [4]: 0.000637 s⁻¹ | kon [4]: 2.08e+06 M⁻¹ s⁻¹ | Kd [5]: 1.61 nM | koff [5]: 0.00296 s⁻¹ | kon [5]: 1.86e+06 M⁻¹ s⁻¹
B9: P3A1-[G4S]5-P3A1 homodimer with His6Myc tag (VNAR)
chain: TRVDQTPRTATKETGESLTINCVLTDTSYGLYSTSWFRKNPGTTDWERMSIGGRYVESVNKGAKSFSLRIKDLTVADSATYYCKAREARHPWLRQWYDGAGTVLTVNGGGGSGGGGSGGGGSGGGGSGGGGSTRVDQTPRTATKETGESLTINCVLTDTSYGLYSTSWFRKNPGTTDWERMSIGGRYVESVNKGAKSFSLRIKDLTVADSATYYCKAREARHPWLRQWYDGAGTVLTVNQASGAHHHHHHGAEFEQKLISEEDL
notes: genetic fusion of two VNAR domains; also called P3A1 dimer 6xHis myc; P3A1-P3A1

binding result [6]: no binding (tested: 10 uM) | binding result (D3 VNAR): no binding | binding result (D3-[G4S]5-D3 homodimer): no binding
Binder: QCVATNGKEVVSSTGVLFVKFGPPPTASPGYSDEYE (synthetic linear peptide) [ROR1 ECD Peptide 4]

binding result [6]: no binding (tested: 10 uM) | binding result (D3 VNAR): no binding | binding result (D3-[G4S]5-D3 homodimer): no binding
Binder: YMESLHMQGEIENQI (synthetic linear peptide) [ROR1 ECD Peptide 1]

binding result [6]: no binding (tested: 10 uM) | binding result (D3 VNAR): no binding | binding result (D3-[G4S]5-D3 homodimer): no binding
B19: ROR1 ECD Peptide 2 (peptide)
peptide: RSTIYGSRLRINLDTTDTGYFQ
notes: synthetic linear peptide; insoluble in PBS, repeated in 25% DMSO

Kd [5]: 0.59 nM | koff [5]: 0.0026 s⁻¹ | kon [5]: 4.96e+06 M⁻¹ s⁻¹
B20: P3A1-P3A1-S-mal-vcMMAE (VNAR)
chain: B22 chain
modifications: chain 1 pos 265 (C-terminal Gly, written G): carboxyl amidated with cysteamine (intein cleavage); its thiol joined by thioether to maleimide MC vc PAB MMAE

Kd [5]: 1.43 nM | koff [5]: 0.00277 s⁻¹ | kon [5]: 2.07e+06 M⁻¹ s⁻¹
B21: P3A1-P3A1-Ox-vcMMAE (VNAR)
chain: B22 chain
modifications: chain 1 pos 265 (C-terminal Gly, written G): carboxyl derivatised with O,O'-1,3-propanediylbishydroxylamine (C-terminal aminoxy), joined by oxime to benzaldehyde PEG2 vc PAB MMAE
notes: linker as for m77

binding result [6]: no binding (tested: 10 uM) | binding result (D3 VNAR): no binding | binding result (D3-[G4S]5-D3 homodimer): no binding
Binder: CQPWNSQYPHTHTFTALRFP (synthetic linear peptide) [ROR1 ECD Peptide 3]
